B1: Activated CDC42 kinase 1 (Mus musculus), O54967 (parent)
chain: MQPEEGTGWLLELLSEVQLQQYFLRLRDDLNITRLSHFEYVKNEDLEKIGMGRPGQRRLWEAVKRRKAMCKRKSWMSKVFSGKRLEAEFPSQHSQSTFRKPSPTPGSLPGEGTLQSLTCLIGEKDLRLLEKLGDGSFGVVRRGEWDAPAGKTVSVAVKCLKPDVLSQPEAMDDFIREVNAMHSLDHRNLIRLYGVVLTLPMKMVTELAPLGSLLDRLRKHQGHFLLGTLSRYAVQVAEGMAYLESKRFIHRDLAARNLLLATRDLVKIGDFGLMRALPQNDDHYVMQEHRKVPFAWCAPESLKTRTFSHASDTWMFGVTLWEMFTYGQEPWIGLNGSQILHKIDKEGERLPRPEDCPQDIYNVMVQCWAHKPEDRPTFVALRDFLLEAQPTDMRALQDFEEPDKLHIQMNDVITVIEGRAENYWWRGQNTRTLCVGPFPRNVVTSVAGLSAQDISQPLQNSFIHTGHGDSDPRHCWGFPDRIDELYLGNPMDPPDLLSVELSTSRPTQHLGRVKREPPPRPPQPAIFTQKTTYDPVSEDPDPLSSDFKRLGLRKPALPRGLWLAKPSARVPGTKADRSSGGEVTLIDFGEEPVVPTPRPCAPSLAQLAMDACSLLDKTPPQSPTRALPRPLHPTPVVDWDARPLPPPPAYDDVAQDEDDFEVCSINSTLVGAGLPAGPSQGETNYAFVPEQAQMPPALEDNLFLPPQGGGKPPSSVQTAEIFQALQQECMRQLQVPTGQLTPSPTPGGDDKPQVPPRVPIPPRPTRPRVELSPAPSGEEETSRWPGPASPPRVPPREPLSPQGSRTPSPLVPPGSSPLPHRLSSSPGKTMPTTQSFASDPKYATPQVIQAPGPRAGPCILPIVRDGRKVSSTHYYLLPERPPYLERYQRFLREAQSPEEPAALPVPPLLPPPSTPAPAAPTATVRPMPQAAPDPKANFSTNNSNPGARPPSLRAAARLPQRGCPGDGQEAARPADKVQMLQAMVHGVTTEECQAALQSHSWSVQRAAQYLKVEQLFGLGLRPRVECHKVLEMFDWNLEQAGCHLLGSCGPAHHKR

Variants of: B1
Details: with NCK1, P16333-1

Question: How did the “effect of a mutation on the interaction” value turn out when K158A was run?
Answer: disrupting interaction strength

— IntAct's records for PubMed 16777958
